This passage reports stoichiometry N results from PMC11482875.

For the experiment, the target named is miniTRIM37 RBhcc (human | T. thermophilus) (UniProt O94972). In words: SEC-MALS. On the technique in general: SEC sorts molecules by how far they enter the pores of the column.

For the substance “miniTRIM37 RBhcc (from UniProt O94972 1-158; O94972 214-254)”, the stoichiometry N (commonly the number of molecules, sites or subunits per partner or assembly) was 2.
